# B1: c10G5: chimeric (mouse variable/human constant) IgG1 variant of antibody 10G5 (antibody)
# heavy: QVQLQQSGAELVRPGASVKLSCKASGYSFTDFYINWVRQRPGQGLEWIARIFPGGDNTYYNEKFKGKATLTAEESSSTAYIQLSSLTSEDSAVYFCARRGLYYAMDYWGQGISVTVSS
# light: DVLMTQTPLSLPVSLGDQASISCRSSQSLVHSNGIPYLHWYLQKPGQSPKLLIYRVSNRFSGVPDRFSGSGSGTDFTLKISRVEAEDLGVYFCSQGTHVPPTFGGGTKLEIK
# modifications: left off: a dimerising Fc or GST
# notes: chimeric (mouse variable/human constant) IgG1 variant of antibody 10G5
# Test system: A549 tumours
# Test: A549 NSCLC xenograft in nude mice
# Format: in vivo, mouse
# Procedure: Inhibition of A549 xenograft tumour growth by chimeric antibody 10G5. The antibody was administrated intraperitoneally at 20 mg/kg, twice a week, starting when the mean tumour size reached 100 mm^3. Tumour growth curves for the groups treated with either vehicle (sterile PBS) or chimeric 10G5 are shown. Error bars represent standard error of the mean (SEM). Statistical analysis was performed using two-way ANOVA. **, P<0.01.
# To evaluate the anti-tumour activity of anti-Axl chimeric antibodies in vivo, we used a mouse xenograft model of human non-small cell lung cancer (NSCLC). The human NSCLC A549 cells (ATCC #CCL-185) A549 cells were propagated in vitro as a monolayer culture in DMEM medium supplemented with 10% FBS, 2 mM L-Glutamine, 100 U/ml penicillin and 100 μg/ml streptomycin, 0.01M HEPES buffer, 0.45% D-(+)-glucose, 1 mM sodium pyruvate. Nude mice were implanted subcutaneously (s.c.) into the flank with 5×10^6 A549 cells resuspended in serum-free medium/Matrigel (1:1). When the tumour size reached 100 mm^3 (Day 0 in FIG. 14), the animals were randomized and treated with either vehicle (sterile PBS) or anti-Axl chimeric antibody 10G5 at 20 mg/kg, by intraperitoneal (i.p.) injections twice weekly for 4 weeks.
molecule,measurement,setting,value
B1,growth of A549 tumours compared with the control,"20 mg/kg i.p. twice weekly for 4 weeks, P<0.01, two-way ANOVA",significantly attenuated growth of A549 tumours
same,inhibition of tumour growth,"20 mg/kg i.p. twice weekly, after four weeks of treatment, versus vehicle (PBS)",around 40%

# — patent US10208121B2, “Anti-Axl antagonistic antibodies” (BERGEN TEKNOLOGIOVERFORING AS, priority 2014, dated 2019)
